Experimental data taken from patent US8710032B2, “Inhibitors of the mevalonate pathway of Streptococcus pneumoniae” (Northwestern University, priority 2006, dated 2014).

Substrate: Nc1ncnc2c1ncn2[C@@H]1O[C@H](COP(=O)(O)OP(=O)(O)OP(=O)(O)O)[C@@H](O)[C@H]1O
Assay: Initial substrate results of analogues with mevalonate kinase (FIG. 8)
Assay type: biochemical, Streptococcus pneumoniae
Details: other: ATP
Procedure: FIG. 8. Initial substrate results [analogue] ranged from 2.0-2.5 mM, except #6 (4.2 mM) and #8 (6.2 mM).
A series of compounds related to compounds 4, 5, 23, and 25 can be synthesized as potential competitive or noncompetitive reversible inhibitors of MK and DPM-DC (See, e.g., FIGS. 6-7). The representative synthesis shown (Scheme 4a) is a modification of that shown in Scheme 4, and R is limited only by availability of the corresponding reagent and synthetic technique, as would be understood by those skilled in the art made aware of this invention (e.g., alkyl, vinyl, acetylenyl, aryl, heteroaryl, etc., via Grignard reaction with the corresponding magnesium bromide or chloride).

B1: mevalonate kinase (Streptococcus pneumoniae TIGR4) (protein)
chain: MTKKVGVGQAHSKIILIGEHAVVYGYPAISLPLLEVEVTCKVVPAESPWRLYEEDTLSMAVYASLEYLNITEACIRCEIDSAIPEKRGMGSSAAISIAAIRAVFDYYQADLPHDVLEILVNRAEMIAHMNPSGLDAKTCLSDQPIRFIKNVGFTELEMDLSAYLVIADTGVYGHTREAIQVVQNKGKDALPFLHALGELTQQAEVAISQKDAEGLGQILSQAHLHLKEIGVSSPEADFLVETTLSHGALGAKMSGGGLGGCIIALVTNLTHAQELAERLEEKGAVQTWIESL
Km: 850 µM
